Source: patent US20240301031A1 (JIANGSU HENGRUI PHARMACEUTICALS, published 2024)
Read-outs that look alike come from different tables or passages of the source.

T1: human APRIL (5860-AP-010/CF, R&D Systems) (human, UniProt O75888 115-250, limits assumed)
T1 construct: Bought protein
T1 sequence (looked up): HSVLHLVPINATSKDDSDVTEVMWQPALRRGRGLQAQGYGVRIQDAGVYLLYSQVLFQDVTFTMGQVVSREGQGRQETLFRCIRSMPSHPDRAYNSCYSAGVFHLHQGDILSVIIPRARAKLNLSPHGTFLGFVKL

T2: IL-12/23 p40 (Sino biological, 10052-H08H) (UniProt P29460 23-328)
T2 construct: Bought protein
T2 sequence (looked up): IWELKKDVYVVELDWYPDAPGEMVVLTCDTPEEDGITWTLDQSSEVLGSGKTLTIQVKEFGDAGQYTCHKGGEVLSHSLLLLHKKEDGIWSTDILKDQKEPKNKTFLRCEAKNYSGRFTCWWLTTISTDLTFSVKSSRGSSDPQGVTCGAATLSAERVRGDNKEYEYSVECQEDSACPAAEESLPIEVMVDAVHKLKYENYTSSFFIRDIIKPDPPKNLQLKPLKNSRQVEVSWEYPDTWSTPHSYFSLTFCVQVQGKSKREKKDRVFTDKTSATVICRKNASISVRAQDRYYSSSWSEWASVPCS


Experiments:
[1] = biological target: T3, human BAFF (10056-HNCH, Sino biological) (human, UniProt Q9Y275 134-285); test: competition ELISA: biotin-labeled BAFF to coated BCMA
T3 construct: Bought protein
Experimental: (§1) A receptor protein was diluted to 2 μg/mL with PBS at pH 7.4 (BasalMedia, B320) and added to a 96-well microplate (Corning, 3590) at 100 μL/well. The plate was incubated at 4° C. overnight. After the liquid was discarded, 200 μL of 1% Casein blocking solution (Thermo, 37528) was added to each well for blocking, and the plate was incubated at 37° C. for 2 h. After the blocking was completed, the blocking solution was discarded, and the plate was washed 3 times with a PBST buffer (PBS at pH 7.4 containing 0.1% tween-20) for later use. A biotin-labeled ligand protein at a fixed concentration was mixed with the antibody or fusion protein diluted in gradient, pre-incubated at 37° C. for 30 min, and added to a blocked microplate. The plate was incubated at 37° C. for 1.5 h. After the incubation was completed, the plate was washed 3 times with PBST. 100 μL of streptavidin-HRP (Invitrogen, 434323, diluted at a ratio of 1:4000) was added to each well, and the plate was incubated at 37° C. for 1 h. The supernatant was removed, and the plate was washed 3 times with PBST. […] The plate was read for absorbance values at 450 nm on a microplate reader, the curves for the inhibition of the binding of the ligands to the receptors were fitted with software, and the IC₅₀ values were calculated. […]

[2] = biological target: T3, human BAFF (10056-HNCH, Sino biological); test: competition ELISA: BAFF-R coated on the plate, biotin-labelled BAFF at a fixed concentration pre-incubated with the diluted sample, streptavidin-HRP, OD450 (blocked ligand-receptor pair: BAFF/BAFF-R)
Experimental: as §1

[3] = biological target: T3, human BAFF (10056-HNCH, Sino biological); test: SPR (Biacore), sample captured on Protein A, antigen flowed, 1:1 fit
Experimental: (§2) A certain amount of test sample was subjected to affinity capture by a biosensor chip Protein A (GE, 29127556), then antigens at a series of concentration gradients were allowed to flow on the surface of the chip. The reaction signals were detected in real time by using Biacore (GE, 8K) to obtain association and dissociation curves. After the dissociation was completed for each cycle, the biochip was washed and regenerated with a 10 mM glycine-hydrochloric acid solution at pH 1.5 (GE, BR-1003-54). The experimental data were fitted using BIAevaluation version 4.1, GE software with a 1:1 model to obtain affinity values. The related antigen proteins used in this assay are as follows: human IL-23 (CT048-H08H, Sino biological), human IL-12 (CT050-H08H, Sino biological), human BAFF (10056-HNCH, Sino biological), human APRIL (5860-AP-010/CF, R&D Systems), cynomolgus monkey p40 (10215-CL, R&D Systems), cynomolgus monkey BAFF (BAF-CM412B, Kactus), cynomolgus monkey APRIL (APR-CM410B, Kactus), mouse BAFF (BAF-M521y, Acro Biosystems), and mouse APRIL (7907-AP/CF, R&D Systems).

[4] = biological target: T4, mouse BAFF (BAF-M521y, Acro Biosystems) (mouse, UniProt Q9WU72 127-309); test: as above
T4 construct: Bought protein
Experimental: as §2

[5] = biological target: T5, cynomolgus monkey BAFF (BAF-CM412B, Kactus) (cynomolgus monkey, UniProt A0A2K5V2X4 134-285); test: as above
T5 construct: Bought protein
Experimental: as §2

[6] = biological target: T6, BAFF (R&D Systems, 7537-BF) (UniProt Q9Y275 134-285); test: cell-based or functional assay
[7] = biological target: T3, human BAFF (10056-HNCH, Sino biological); test: competition ELISA: biotin-labeled BAFF to coated TACI
Experimental: as §1

[8] = biological target: T1, human APRIL (5860-AP-010/CF, R&D …); test: ELISA, APRIL coated
[9] = biological target: T2, IL-12/23 p40 (Sino biological, …); test: ELISA, IL-12/23 p40 coated
[10] = biological target: T1, human APRIL (5860-AP-010/CF, R&D …); test: cell-based or functional assay
[11] = biological target: T3, human BAFF (10056-HNCH, Sino biological); test: competition ELISA: biotin-labeled BAFF to coated BAFF-R
Experimental: The blocking activity of the antibodies and the fusion proteins for receptors and ligands such as BAFF/BAFF-R, BAFF/BCMA, BAFF/TACI, APRIL/BCMA, APRIL/TACI, and p40/IL-12R1 was assayed by the ELISA method. The specific procedures were as follows:
A receptor protein was diluted to 2 μg/mL with PBS at pH 7.4 (BasalMedia, B320) and added to a 96-well microplate (Corning, 3590) at 100 μL/well. The plate was incubated at 4° C. overnight. After the liquid was discarded, 200 μL of 1% Casein blocking solution (Thermo, 37528) was added to each well for blocking, and the plate was incubated at 37° C. for 2 h. After the blocking was completed, the blocking solution was discarded, and the plate was washed 3 times with a PBST buffer (PBS at pH 7.4 containing 0.1% tween-20) for later use. A biotin-labeled ligand protein at a fixed concentration was mixed with the antibody or fusion protein diluted in gradient, pre-incubated at 37° C. for 30 min, and added to a blocked microplate. The plate was incubated at 37° C. for 1.5 h. After the incubation was completed, the plate was washed 3 times with PBST. 100 μL of streptavidin-HRP (Invitrogen, 434323, diluted at a ratio of 1:4000) was added to each well, and the plate was incubated at 37° C. for 1 h. The supernatant was removed, and the plate was washed 3 times with PBST. 100 μL of TMB chromogenic substrate (KPL, 5120-0077) was added to each well, and the plate was incubated at room temperature for 10-15 min. The reaction was stopped by adding 50 μL of 1 M H₂SO₄ to each well. The plate was read for absorbance values at 450 nm on a microplate reader, the curves for the inhibition of the binding of the ligands to the receptors were fitted with software, and the IC₅₀ values were calculated.

[12] = biological target: T7, BAFF (ACROBiosystems, BAF-H5248) (UniProt Q9Y275 134-285); test: ELISA, fusion protein coated, BAFF titrated, Anti-His-HRP
T7 construct: Bought protein used in the ELISA with coated test sample
Experimental: The binding activity of the TACI fusion proteins for BAFF and APRIL was assayed by the ELISA method (coating a test fusion protein sample). The specific procedures were as follows:
The test sample was diluted to 2 μg/mL with a PBS (BasalMedia, B320) buffer at pH 7.4 and added to a 96-well microplate (Corning, 3590) at 100 μL/well. The plate was incubated at 4° C. overnight. After the liquid was discarded, 300 μL of 5% skim milk (BD, 232100) diluted with PBS was added to each well for blocking, and the plate was incubated at 37° C. for 2 h. After the blocking was completed, the blocking solution was discarded, and the plate was washed 3 times with a PBST buffer (PBS at pH 7.4 containing 0.1% tween-20). 100 μL of BAFF (ACROBiosystems, BAF-H5248) or APRIL (R&D Systems, 5860-AP-010/CF) diluted in a gradient was added to each well, and the plate was incubated at 37° C. for 1 h. After the incubation, the plate was washed 3 times with PBST. When detecting the binding to BAFF, 100 μL of Anti-His-HRP (Sino biological, 105327-MM02T-H, diluted at a ratio of 1:2000) was added to each well; when detecting the binding to APRIL, 100 μL of anti-HA-HRP (Abcam, ab1190, diluted at a ratio of 1:4000) was added to each well. The plate was incubated at 37° C. for 1 h. The plate was washed 3 times with PBST. 100 μL of TMB chromogenic substrate (KPL, 5120-0077) was added to each well, and the plate was incubated at room temperature for 10-15 min. The reaction was stopped by adding 50 μL of 1 M H₂SO₄ to each well. The plate was read for absorbance values at 450 nm on a microplate reader, the binding curves of the antibodies to an antigen were fitted with software, and the EC₅₀ values were calculated.

[13] = biological target: T6, BAFF (R&D Systems, 7537-BF); test: cell-based or functional assay; remark: listed apart in the source

| IC50 [1] | IC50 (read off the curve) [2] | Kd [3] | koff [3] | kon [3] | Kd [4] | koff [4] | kon [4] | Kd [5] | koff [5] | kon [5] | IC50 (nM) for the inhibition of the BAFF-induced B cell proliferation [6] | IC50 [7] | binding result [8] | binding result [9] | IC50 (nM) for the inhibition of the APRIL-induced B cell proliferation [10] | IC50 [11] | EC50 [12] | IC50 (nM) for the inhibition of the BAFF-induced B cell proliferation [13] | Binder |
| --- | --- | --- | --- | --- | --- | --- | --- | --- | --- | --- | --- | --- | --- | --- | --- | --- | --- | --- | --- |
| 458 pM | ~700 pM | 105 pM | 0.000171 s⁻¹ | 1.64e+06 M⁻¹ s⁻¹ | 104 pM | 0.000144 s⁻¹ | 1.38e+06 M⁻¹ s⁻¹ | 459 pM | 0.000221 s⁻¹ | 481000 M⁻¹ s⁻¹ | 0.146 nM | 567 pM | no binding | no binding |  |  |  |  | Belimumab (antibody, human IgG1, lambda, V domains shown, Marketed control antibody; also called anti-BAFF antibody belimumab) VH: QVQLQQSGAEVKKPGSSVRVSCKASGGTFNNNAINWVRQAPGQGLEWMGGIIPMFGTAKYSQNFQGRVAITADESTGTASMELSSLRSEDTAVYYCARSRDLLLFPHHALSPWGRGTMVTVSS VL: SSELTQDPAVSVALGQTVRVTCQGDSLRSYYASWYQQKPGQAPVLVIYGKNNRPSGIPDRFSGSSSGNTASLTITGAQAEDEADYYCSSRDSSGNHWVFGGGTELTVLG |
|  |  |  |  |  |  |  |  |  |  |  |  |  |  |  | 0.00477 nM | 1560 pM | 10500 pM | 0.0291 nM | TACI-9-15Fc8 fusion protein (Fc fusion, Full-length chain) STSCREEQGEFYDHLLRDCISCASICGQHPKQCAAFCEEPKSSDKTHTCPPCPAPEAEGAPSVFLFPPKPKDTLMISRTPEVTCVVVDVSHEDPEVKFNWYVDGVEVHNAKTKPREEQYNSTYRVVSVLTVLHQDWLNGKEYKCKVSNKALPSSIEKTISKAKGQPREPQVYTLPPSRDELTKNQVSLTCLVKGFYPSDIAVEWESNGQPENNYKTTPPVLDSDGSFFLYSKLTVDKSRWQQGNVFSCSVMHEALHNHYTQKSLSLSPGGGGSSTSCREEQGEFYDHLLRDCISCASICGQHPKQCAAFCESK |
|  |  |  |  |  |  |  |  |  |  |  |  |  |  |  | 0.00947 nM | 1180 pM | 8940 pM | 0.0262 nM | TACI-9-15Fc9 fusion protein (Fc fusion, Full-length chain) STSCREEQGEFYDHLLRDCISCASICGQHPKQCAAFCEEPKSSDKTHTCPPCPAPEAEGAPSVFLFPPKPKDTLMISRTPEVTCVVVDVSHEDPEVKFNWYVDGVEVHNAKTKPREEQYNSTYRVVSVLTVLHQDWLNGKEYKCKVSNKALPSSIEKTISKAKGQPREPQVYTLPPSRDELTKNQVSLTCLVKGFYPSDIAVEWESNGQPENNYKTTPPVLDSDGSFFLYSKLTVDKSRWQQGNVFSCSVMHEALHNHYTQKSLSLSPGGGGSSTSCREEQGEFYDHLLRDCISCASICGQHPKQCAAFCESS |
|  |  |  |  |  |  |  |  |  |  |  |  |  |  |  | 0.00481 nM | 1380 pM | 8950 pM | 0.0244 nM | TACI-9-15Fc7 fusion protein (Fc fusion, Full-length chain) STSCREEQGEFYDHLLRDCISCASICGQHPKQCAAFCEEPKSSDKTHTCPPCPAPEAEGAPSVFLFPPKPKDTLMISRTPEVTCVVVDVSHEDPEVKFNWYVDGVEVHNAKTKPREEQYNSTYRVVSVLTVLHQDWLNGKEYKCKVSNKALPSSIEKTISKAKGQPREPQVYTLPPSRDELTKNQVSLTCLVKGFYPSDIAVEWESNGQPENNYKTTPPVLDSDGSFFLYSKLTVDKSRWQQGNVFSCSVMHEALHNHYTQKSLSLSPGGGGSSTSCREEQGEFYDHLLRDCISCASICGQHPKQCAAFCEQK |
